Test results: PMC11277083, “A Natural Bioactive Peptide from Pinctada fucata Pearls Can Be Used as a Potential Inhibitor of the Interaction between SARS-CoV-2 and ACE2 against COVID-19” (International Journal of Molecular Sciences, 2024)

Target: recombinant ACE2 protein (coated plate of the RayBio COVID-19 Spike ACE2 binding assay kit II) (UniProt P0DTC2)
Assay: ELISA; […] ([…], in PBS), 2 h at room temperature; […]

KKCH peptide
IC50: 413 µM
